Data as given in the supplement of paper PMC10567573.

B1: PCDHGA10 (parent)
chain: FHELQMQVTASDSGDPPLSSNVSL

Variants of: B1
Assay: protein stability index of a GFP-peptide fusion (GPS, HEK-293T) (PSI 1-6); higher = more stable
Settings: c terminus: a fixed tail appended
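Further: lentivirally expressed fusions sorted by FACS into six bins by GFP to DsRed ratio, PSI derived from sequencing read proportions per bin multiplied by bin number.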

Protein stability index: each site, then its substitutions
S20: D 3.06; H 2.05; E 2.75; K 1.85; P 2.54; Y 1.83; M 2.2; L 2.69; T 2; V 3.46; W 3.19; F 2.69; A 1.82; C 1.62
P17: E 2.28; Y 1.52; A 2.29; D 2.28; C 1.56; T 1.93; K 2.43; R 1.79; M 2.38; W 1.48; L 1.16; V 1.78; S 2.13; G 2.14; F 1.97; I 2.65
S13: E 2.69; M 2.08; W 1.6; N 2.43; H 2.1; I 1.66; C 2.43; D 2.53; L 2.13; A 1.82; R 2.12
L4: R 2.77; M 2.24; P 2.57; I 2.28; K 2.73; Q 3.36; A 2.76; C 2.73; Y 2.04; F 1.39; W 2.2; V 2.84
S19: Q 2.36; Y 1.94; T 2.02; C 1.93; P 2.2; L 1.85; A 2.17; R 2.02; G 2; K 2.11; F 2.07; V 1.57; W 2.45; I 1.66; E 3.04; M 2.36
M6: Y 2.46; G 3.07; C 2.47; V 2.56; N 3.46; I 1.65; Q 3.54; S 3.29; E 3.77; H 2.98; F 1.4; L 2.58; P 3.87; R 3
L24: G 2.52; Y 2.31; P 2.9; M 2.68; S 3.29; N 2.96; R 2.75; I 1.83; T 3.22; D 3.17; C 2.84; F 2.06; K 2.79
D15: E 1.98; W 3.09; V 1.92; N 2.48; H 1.88; K 1.85; C 1.79; G 1.97; Y 1.42; Q 2.04; F 1.4; M 1.91; P 1.95; L 1.64; T 1.8; I 1.93; S 1.67
Q5: F 3.27; A 2.26; D 3.32; Y 1.87; L 1.4; E 3.23; S 2.11; V 2.04; I 1.82; K 2.13; W 3.59; R 2.42; P 2.23; T 2.16
V22: A 2.52; F 1.8; K 2.84; G 2.72; E 3.24; P 2.34; D 3.4; I 1.85; R 2.69; S 3.11; C 2.38; Q 2.43
V8: C 2.56; Q 3.51; A 3.11; I 2.29; E 3.94; Y 2.01; G 3.3; W 1.25; M 2.28; S 3.07; T 2.81; L 2.15; N 3.72
L18: C 2.39; A 2.5; V 2.43; H 3.04; G 3.05; Y 2.15; F 2.56; E 2.53; K 2.31; P 3.02; I 2.33; S 3.29; Q 3; D 3.51; W 2.3
